Consider 5 molecules from patent US9884910B2, “Anti-PDGF-C antibodies” (ThromboGenics NV, priority 2012, dated 2018).

For series [1], the target named is T1, PDGFRα activation by human PDGF-C (Homo sapiens, UniProt Q9NRA1).
T1 construct: the growth factor domain of PDGF-C (amino acids 235-345 of human PDGF-C); purchased R&D Systems 1687-CC/CF; host or cells: ligand added to U2OS PDGFRα PLCG1 cells (DiscoveRx, assay 93-0823C3) that express the transfected receptor
The series is described as follows: PathHunter PDGFRα receptor tyrosine kinase assay in U2OS PDGFRα PLCG1 cells. The series is classed as cell-based. An excerpt: To evaluate the inhibitory activity of anti-human PDGF-C antibodies on PDGFRα activation by human PDGF-C, the PathHunter® receptor tyrosine kinase assay for PDGFRα (93-0823C3) from DiscoveRx® was used. […] A small complementing fragment of β-gal, the Prolink™ tag (PK) has been fused recombinantly to the intracellular C-terminus of the receptor tyrosine kinase PDGFRα. The larger portion of β-gal, termed EA for enzyme acceptor, is co-expressed with an SH2 (Src Homology 2) phosphotyrosine binding domain. Ligand-induced activation of the receptor results in dimerization and intra-cellular cross-phosphorylation of the receptor. Subsequently, the SH2 domain specifically binds the phosphorylated receptor resulting in the complementation of the two β-gal fragments PK and EA, and formation of a functional β-gal enzyme. Following addition of a β-gal substrate, an easily detectable chemiluminescent signal is produced which is directly correlated to receptor activation. The LumiLITE™ microplate reader is fully compatible with all EFC-based assays of DiscoveRx® and is therefore used.
For the PathHunter® PDGFRα, assay, U2OS PDGFRα, PLCG1 (phospholipase Cγ as the source of the SH2 domain) cells from DiscoveRx® were used. Frozen cells were stored in liquid nitrogen. Upon thawing, cells were resuspended in pre-warmed thawing medium (i.e. culture medium without the selection antibiotics Geneticin and Hygromycin B). After 48 hours of culture in a 5% CO2 incubator at 37° C., thawing medium was replaced by culture medium (MEM Eagle 1× (30-2003 from Invitrogen), 10% fetal bovine serum (SH30071.03 from Perbio Science), 1× Penicillin-Streptomycin-Glutamine (10378-016 from Invitrogen), 250 μg/ml Hygromycin B (10687-010 from Invitrogen), 500 μg/ml Geneticin (10131-035 from Invitrogen)). Once confluence was reached, cells were passaged with a ⅓ dilution every 2-3 days using Accutase (L11-007 from PAA). Cells were maintained in a non-confluent state during routine culture.
In the PathHunter® PDGFRα, assay, the U2OS PDGFRα, PLCG1 cells from DiscoveRx® cultured up to 10 passages were used. Cells were seeded at 20.000 cells in 100 μl per well in 96-well white culture-treated microplates with clear bottom (3610 from Corning). The PathHunter® Cell Plating 16 Reagent (93-0563R16 from DiscoveRx®) was employed as seeding medium. Following 24 hours of culture in 5% CO2 at 37° C., 25 μl of a 5-fold concentrated agonist solution in Cell Plating 16 Reagent was used per well to stimulate the cells. Recombinant human PDGF-C from R&D Systems (1687-CC/CF; Va1235-Gly345) was applied as agonist. After 3 hours incubation at room temperature, 60 μl of PathHunter® detection reagent (93-0001 from DiscoveRx®; 1 part Galacton Star® Substrate, 5 parts Emerald II™ Solution, and 19 parts of PathHunter® Cell Assay Buffer) was added. Cells were placed at room temperature and in the dark for another hour before luminescence was measured with the LumiLITE™ microplate reader. With GraphPad Prism® software, a non-linear regression analysis was performed using the obtained luminescent values in order to generate a sigmoidal agonist dose-response curve with variable slope. The EC50 (i.e. half maximal effective concentration) and EC80 value (i.e. the effective concentration that leads to 80% of the maximal response) for human PDGF-C was calculated.
To evaluate the inhibitory activity of anti-human PDGF-C antibodies on PDGFRα, activation by human PDGF-C, equal volumes of […] concentrated solutions of anti-human PDGF-C antibodies and the EC80 of human PDGF-C, prepared in Cell Plating 16 Reagent, were mixed and the assay was performed as described above. As positive controls, an anti-human PDGF-C polyclonal goat IgG antibody (AF1560 from R&D Systems) and recombinant human PDGFRα, Fc chimera (6765-PR from R&D Systems) were employed. […]

In series [2] the target is T2, 15-mer, overlapping peptides covering the entire human PDGF-C molecule (Homo sapiens, UniProt Q9NRA1).
T2 construct: host or cells: chemical synthesis
The series is described as follows: Epitope mapping ELISA on 15-mer overlapping peptides. The series is classed as binding. The settings on record: peptide coated 10 μg/mL, antibody 1 μg/mL. As for the experimental part: The binding of anti-PDGF-C antibodies to 15-mer, overlapping peptides covering the entire human PDGF-C molecule was assessed by ELISA. Antibodies included in this analysis are the five antibodies potently inhibiting activation of PDGF-Rα by PDGF-C, i.e. monoclonal antibodies 2D3, 5A2, 5H7, 16B1 and 29H1. Further included are two antibodies capable of binding to PDGF-C, but not or very poorly inhibiting activation of PDGF-Rα by PDGF-C, i.e. monoclonal antibodies 12E5 (IgG1) and 19F12 (IgG2b) (see Example 4). […] For all antibodies, it was confirmed that they bind to human PDGF-C and binding to full-length human PDGF-C was for all antibodies tested more efficient than binding to any of the peptides identified as described hereafter.
The indicated peptides where synthesized in an N-terminally biotinylated form and coated onto a neutravidin plate (Thermo Scientific, Cat. 15127) at a concentration of 10 μg/mL. The antibodies listed in the table were incubated in each well at a concentration of 1 μg/mL and, following washing, were then detected in a standard ELISA format using an appropriate, HRP-labeled secondary antibody (goat anti-mouse IgG-HRP for all antibodies except sc-80290, and goat anti-rat IgG-HRP for sc-80290). Each antibody was tested at least twice, and up to 4 times. A “+” in the table indicate that a signal to background >3 was found and confirmed at least once. The background signal was measured in the absence of peptide using both the primary and the secondary antibodies. Antibodies sc-80290 and MAB1560 were tested only against peptides 42-63 since this represents the fraction of the protein that was used as an immunogen.
(In an ELISA, binding on a coated surface is turned into a signal by an enzyme label.)

The test system of series [3] is glioblastoma tumor, U118. The series is described as follows: Antitumor effect against U118 glioblastoma xenograft. It counts as in vivo. The settings on record: for TGI (%) Day 53: day 53 post-tumor implantation; for TGI (%) Day 60: day 60 post-tumor implantation; for TGI (%) Day 63: day 63 post-tumor implantation; for TGI (%) Day 67: day 67 post-tumor implantation. As for the experimental part: For the evaluation of anti-tumor activity of the antibodies, animals were weighed and tumors measured 2 times weekly using a caliper. Tumor weights were calculated using the formula mass (mg)=[length (mm)×width (mm)^2]/2. Antitumor activity evaluation was done at the single dose of 20 mg/kg. A dosage producing a 20% body weight loss (bwl) or 10% or more drug deaths, was considered an excessively toxic dosage. Animal body weights included the tumor weights. The primary efficacy end point is the tumor growth inhibition (% TGI). Changes in tumor volume for each treated (T) and control (C) are calculated for each tumor by subtracting the tumor volume on the day of first treatment (staging day) from the tumor volume on the specified observation day. The median ΔT is calculated for the treated group and the median ΔC is calculated for the control group. Then the ratio ΔT/ΔC is calculated and expressed as a percentage of TGI: ΔT=Tt−T0 ΔC=Ct−C0 % TGI=[1−(median(Tt−T0)/median(Ct−C0)]*100
The antitumor effect of 29H1, 5A2 and 16B1 was evaluated against a measurable glioblastoma tumor, U118, which express both PDGF-C and its receptor, PDGFRa, S.C. implanted in female SCID Beige mice. Control group was treated with PBS alone. The antibodies were administered by an intraperitoneal (IP) injection, and treatment started on day 28 post-tumor implantation and was performed twice a week.

Setting [4] is: peptide binds secondary antibody.
Setting [5] is: 20 mg/kg IP twice a week from day 28.

T1 sequence (Q9NRA1 235-345): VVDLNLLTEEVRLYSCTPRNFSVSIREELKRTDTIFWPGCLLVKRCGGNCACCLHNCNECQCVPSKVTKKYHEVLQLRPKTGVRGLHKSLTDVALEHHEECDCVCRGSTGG

B1: Humanized mAb 5H7: humanized 5H7; VH SEQ ID NO:102, VL SEQ ID NO:103 (antibody, V domains shown)
VH: EVQLLESGGGLVQPGGSLRLSCAASGFTFSSYGMSWVRQTPGKGLEWVATIGYGGSFTYYPDSMKGRFTISRDNAKNTLYLQMNSLRAEDTAVYYCARQAPLWDYFDYWGQGTLLTVSS
VL: DVVMTQSPLSLPVTLGQPASISCRSSQTIVHSDGTTYLEWYLQKPGQSPRLLIYKVSNRFSGVPDRFSGSGSGTDFTLKISRVEAEDVGVYYCFQGSHVPPTFGQGTKLEIK
modifications: humanized variable heavy chain murine monoclonal antibody 5H7; humanized variable light chain murine monoclonal antibody 5H7
With B1, in series [1], the “inhibition of the PDGFRα activation by human PDGF-C (in words)” value is “apparently not inhibiting activation of PDGFR-α”. Also, the “IC50 value (nM)” value in series [1] (humanized antibodies, * average of 3 measurements) is on record as “nad”.

B2: 5A2: murine monoclonal anti-PDGF-C antibody, IgG2b κ; VL SEQ ID NO:15, VH SEQ ID NO:19 (antibody, listed as Mus musculus, V domains shown)
VH: EVQLVESGGDLVKPGGSLKLSCAASGFTFSNYGMSWVRQTPDKRLEWVATIGSGGHYTYYPDSVKGRFTISRDSAKSTLYLQMSSLKSEDTAIYYCARQAPLWDCSDYWGQGTTLTVSS
VL: DVLMTQTPLSLPVSLGDQASISCRSNQSIVHSNGDTYLEWYLQKPGQSPKLLIYKVSNRFSGVPDRFSGSGSGTDFTLKISRVEAEDLGVYYCFQGSHVPPTFGGGTKLEIK
Regarding B2, the “binding to peptide No 58 (SEQ ID NO: 96) VLQLRPKTGVRGLHK” value in series [2] was “+ (A “+” in the table indicate that a signal to background >3 was found and confirmed at least once)”. Moreover, in series [2] (setting [4]), the “binding to peptide No 9 (SEQ ID NO: 47) FPHTYPRNTVLVWRL” value was “+ (A “+” in the table indicate that a signal to background >3 was found and confirmed at least once)”; the “binding to peptide No 27 (SEQ ID NO: 65) EPGFCIHYNIVMPQF” value was “+ (A “+” in the table indicate that a signal to background >3 was found and confirmed at least once)”. Besides, the “tolerability / body weight loss” value in series [3] (20 mg/kg IP twice a week) is “well-tolerated with no tumor body weight loss”. For the same molecule, in series [3] (setting [5]), the “TGI (%) Day 53” value was 55.7%, the “TGI (%) Day 60” value worked out at 38.5%, the “TGI (%) Day 63” value worked out at 43.4% and the “TGI (%) Day 67” value was 42.0%. For the same molecule, in series [3] (20 mg/kg IP twice a week from day 28, day 56 post-tumor implantation), the “TGI (%) Day 56” value worked out at 58.5%.

B3: 5H7: murine monoclonal anti-PDGF-C antibody, IgG1 κ; VL SEQ ID NO:16, VH SEQ ID NO:20 (antibody, listed as Mus musculus, V domains shown)
VH: EVQLVESGGDLVKPGGSLKLSCAASGFTFSSYGMSWVRQTPDKRLEWVATIGYGGSFTYYPDSMKGRFTISRDNAKNTLFLQMSSLKSEDTAIYYCVRQAPLWDYFDYWGQGTTLTVSS
VL: DVLMTQTPLSLPVSLGDQASISCRSSQTIVHSDGTTYLEWYLQKAGQSPKLLIYKVSNRFSGVPDRFSGSGSGTDFTLKISRVEAEDLGVYYCFQGSHVPPTFGGGTKLEIK
Consider B3, for which the “binding to peptide No 58 (SEQ ID NO: 96) VLQLRPKTGVRGLHK” value in series [2] is “+ (A “+” in the table indicate that a signal to background >3 was found and confirmed at least once)”.

B4: 2D3: murine monoclonal anti-PDGF-C antibody, IgG1 κ; VL SEQ ID NO:14, VH SEQ ID NO:18 (antibody, listed as Mus musculus, V domains shown)
VH: EVQLVESGGDLVKPGGSLKLSCAASGFTFSNYGMSWVRQTPDKRLEWVATIGSGGSYTYYPDSVKGRFTISRDSAKNTLYLQMSSLKSEDTAMYYCARQAPLWDYSDYWGQGTTLTVSS
VL: DVLMTQTPLSLPVSLGDQASISCRSNQTIVHSNGDTYLEWYLQKPGQSPNLLIYKVSNRFSGVPDRFSGSGSGTDFTLKISRVEAEDLGVYYCFQGSHVPPTFGGGTKLEIK
On to B4, for which the “binding to peptide No 58 (SEQ ID NO: 96) VLQLRPKTGVRGLHK” value in series [2] was “+ (A “+” in the table indicate that a signal to background >3 was found and confirmed at least once)”.

B5: 16B1: murine monoclonal anti-PDGF-C antibody, IgG1 κ; VL SEQ ID NO:15, VH SEQ ID NO:18 (antibody, listed as Mus musculus, V domains shown)
VH: EVQLVESGGDLVKPGGSLKLSCAASGFTFSNYGMSWVRQTPDKRLEWVATIGSGGSYTYYPDSVKGRFTISRDSAKNTLYLQMSSLKSEDTAMYYCARQAPLWDYSDYWGQGTTLTVSS
VL: DVLMTQTPLSLPVSLGDQASISCRSNQSIVHSNGDTYLEWYLQKPGQSPKLLIYKVSNRFSGVPDRFSGSGSGTDFTLKISRVEAEDLGVYYCFQGSHVPPTFGGGTKLEIK
Take B5: in series [3] (setting [5]), the “TGI (%) Day 53” value came to 8.25%, the “TGI (%) Day 60” value is 27.6%, the “TGI (%) Day 63” value was found to be 11.5% and the “TGI (%) Day 67” value amounted to 11.9%. Moreover, the “tumor growth block (in words)” value in series [3] (ip, at the different time points evaluated) was “failed to block tumor growth”.
